In the assay the target is T1, TDP-215 peptide GDVMDVFI (human).
T1 construct: same ELISA method as for the biotinylated 15-mers
T1 peptide: GDVMDVFI
Kind of assay: indirect ELISA on 8-mer peptide library. On the procedure:
Serum-free supernatants were harvested from stable hybridomas. The supernatants containing antibodies of interest were then screened by an indirect ELISA assay to determine epitopes. Epitopes were mapped using a library of TDP-43 15-mer peptides. Briefly, 96-well streptavidin-coated 96-well ELISA plates were incubated with 5 μg/mL of biotinylated 15-mer peptides spanning the amino acids (aa) 199-285 of human TDP-43 with 9 as offset and 6 as overlap. Plates were washed thoroughly with 0.05% Tween-20/PBS and then blocked with 1% bovine serum albumin (BSA) in 0.05% Tween-20/PBS for 1 hour at 37° C. The antibody contained in the hybridoma supernatant was then added at the indicated dilutions, and incubated for 2 hours at 37° C. after which the plates were washed as described previously. An AP-conjugated anti-mouse IgG secondary antibody (Jackson ImmunoResearch Laboratories, United Kingdom) was added at 1/1000 dilution in 0.05% Tween-20/PBS for 1 hour at 37° C. After the final wash, plates were incubated with pNPP (Sigma-Aldrich, Switzerland) an AP substrate solution, and read at 405 nm using an ELISA plate reader (Tecan).
Furthermore, antibodies were tested using an indirect ELISA on a peptide library of 8-mer peptides with 7 an overlap covering the sequence of human TDP-43 from aa 210 to aa 231, using the same ELISA method as describe previously in this section.
(In an ELISA, binding on a coated surface is turned into a signal by an enzyme label.)

Two molecules from patent US20230340090A1 (published 2023) can be followed below.

B1: ACI-7062-404D6-Ab2 (antibody, IgG3, V domains shown)
VH: QVTLKESGPGILQPSQTLSLTCSFSGFSLSTYGIGVGWIRQPSGKGLEWLAHIWWNDYKYYNTALKSRLTISKDTSNNRVFLKIASVDTADTATYYCARVYGNLYYFDYWGQGTTLTVSS
VL: DVLMTQTPLSLPVSLGDQASISCRSSQSIVHGSGNTYLEWYLQKPGQSPKLLIYKVSNRFSGVPDRFSGSGSGTDFTLRISRVEAEDLGVYYCFQGSHVPTFGAGTKLELKR
notes: Mouse hybridoma antibody, IgG3, kappa; also called 404D6E11; clone 4
Take B1: the binding result is reported as “binds”.

B2: ACI-7062-415H10-Ab2 (antibody, IgG3, V domains shown)
VH: DVQLVESGGGLVQPGGSRKLSCAASGFTFSSFGMHWVRQAPEKGLEWVAYISSGSSNIYYTDTVKGRFTISRDNPKNTLFLQMTSLRSEDTAIYYCARSGTTVPFDYWGQGTTLTVSS
VL: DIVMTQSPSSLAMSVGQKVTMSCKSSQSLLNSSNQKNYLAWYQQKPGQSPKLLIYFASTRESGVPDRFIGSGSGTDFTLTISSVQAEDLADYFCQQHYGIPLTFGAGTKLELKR
notes: Mouse hybridoma antibody, IgG3, kappa; also called 415H10B7; clone 17
Consider B2, for which the binding result is listed as “binds”.
